For this assay, the target named is bovine serum albumin (bovine, UniProt P02769). Nature of the assay: ELISA, plate coated with BSA as negative control (panel of purified LPS). As to the method: Microtitre plates (flat bottomed; microtest III flexible assay plates: Becton Dickinson, Falcon 3912) are coated with purified LPS at 2 µg/ml in coating buffer (diethylenebarbituric acid-Na salt 30 mM. Na acetate 30 mM, NaCl 116 mM; pH 4.5). 50 µl aliquots of the LPS solution are distributed into each well. Unrelated protein (BSA, 2% in PBS pH 7.2/0.02% sodium azide) is used to determine non-specific binding. Plates are incubated for 1 hr at 37° C. and then overnight at 4° C. in a humidified chamber. Plates are washed 4 times with a washing solution i.e. phosphate buffered saline (PBS) pH 7.2, 0.05% vol/vol Tween 20, 0.02% sodium azide. Plates are blocked with 250 µl/well of 2% BSA in PBS/sodium azide 0.02% for 3 hrs at room temperature. Plates are washed again.
Antibody solutions are prepared in PBS/BSA 2%/sodium azide 0.02% at various dilutions, e.g. 1 µg/ml, 100 ng/ml, 10 ng/ml and 1 ng/ml. 50 µl aliquots of these solutions are distributed in the wells of the precoated plates. Incubation is carried out overnight at room temperature. […] After 1 hr, absorbance is read at 405 nm using a Titertek Multiskan ELISA reader (MCC/340, Flowlabs).
(An ELISA detects its analyte on a solid surface through an enzyme-linked reagent.)

B1: murine monoclonal antibody WN1 222-5 (antibody, V domains shown)
VH: EVKLVESGGGLVQPGGSLSLSCAASGFTFSDYYMTWVRQAPGKAPEWLALIRNKRNGDTAEYSASVKGRFTISRDYSRSILHLQMNALRTEDSATYYCVRQGRGYTLDYWGQGTSVTVSS
VL: DIQMNQSPSSLSASLGDTISITCRASQNINIWLSWYQQKPGNVPKLLIYKASNLHTGVPSRFSGSGSGTDFTLIISSLQPEDIATYYCLQGQSYPRTFGGGTKLEIK
With B1, the binding result is “no binding (tested: 100 ng/ml)”.

B2: murine monoclonal antibody WN1 58-9 (antibody, V domains shown)
VH: EVKLVESGGGLVQPGGSLRLSCAASGFTFIDYYMTWVRHPPGEAPEWLALIRNYRNGDTAEYSASVRGRFTISRDDSQSILYLQMNALRAEDSATYYCVRQGRGYTLDYWGQGTSVTVSS
VL: DIQMNQSPSSLSASLGDTITITCRARLNINIWLSWYQQKAGNIPKLLISKASNLHTGVPSRFSGSGSGTDFTLTISSLRPEDIATYYCLQGQSYPRTFGGGTKLEIK
With B2, the binding result is reported as “no binding (tested: 100 ng/ml)”.

Source of the values: patent publication US5858728, “Monoclonal antibody against LPS core” (Common Services Agency, dated 1999).
